Data reported in the DeepSol protein solubility set.

Assay: soluble on expression in E. coli; label from the status in PepcDB or PDB records

Row | Sequence | soluble on expression in E. coli
1 | MSKDSNKIIEQSREIGISIIMPLYNVEEVILETLESIHEQTFDSYEVLLIDDGSTDKTIEIVTEYIKDKPRFKLYTQPNGGPASARNHGLRLAIGMYICFVDSDDILPNYSLQLMYDGAISTGAKLITGATKRFNSEGEWFIPMHIQYNIAKPGMKTLLKNPELFYSIGPCAKLYHHSLIDGVFFPENIRYGEDQPFVLHALLQAKDIYTVEKVVYYYRLRDGESQSLTQSVDKDPIRILKSVFQIFDYGEEELKKNNTDYEVALKYYQRVSSVELWGALRAAIESKKSENQKIAFTMTLDWLKTKSDDFLNIIPSFRYFLLFSSIERVRYITKDNKENYRNLIGYLWSRQGEEAKIAFRKTYPIPMKAALQIIENNNWRDARKISFKFIVRRKFKAPILIRKISRGIIFRIATLMPRKKNQVILATERSTTLEGNLLAIYDYMFYNNMPQKVYVFLRKNRNWFEMFQLYYTLGRTKTIVLDDYYNKIYGLKFNKNTHVVQSWHATGAFKKFGFSALEGTDANTEEFETRAHSPYTDVLVSSEGIIPEYMEAFRKQANQIKPIGVPRTDVFFDDEYVNYTKEKYMKMYPQLRDKKILLYAPTFRGGPNERFNYSVVLDIAALKKELGDTHILILKFHPVIKNVSFNVEEDDPFILNLTLNNDINDLMLFSDALITDYSSVIFEFSLMNKPIYFFAYDIDDYLDERGFYFDYKATIPGEVFRDTPSLIEAVKSGLYNYDELEIFKKKFVGSLDGNSTKRFVETYIGKANEKVKDILEHHHHHH | soluble
2 | MSKEIDISIRYLENVLSTNNSTLILSSTAAVLEAVSKNCDTTNGELKRSIISLLRIIDKKCFLNQDVDVNQIKFSLQEVGKLSTKYPKSHQKPGNEVKVKTNAEFREIETVPNPDEENIDNLLNQLNLKKVPSFSPAFPDIGDDSDDENGITTKQKEEERAEQHGQKVCEEEVVKLPDGREIRMKKTKTVNVKQTTKHVTISTKSANMPEVSRTFMNARRGFDEDEEEENTNFGSSNMRGGDPFERFRSMLKDKDEKIEAIEGESSSDPGTPGSSSKSKTIERTSEVSQKVSEKKEKDGRLLAEHEASKLDKSNLFAKQVDTYQGAALIDRKGEGSYEESTLVRSALPQDSQVATPPRMHVVEYMMMFGDDKKNNENEYLKGTTISSYVRLNNNLTTHEEQFKKKIQFEFSTAGTSSTTIDLDNLSDLLNQTDFNCLRPPNKFLEDTPLIVEQPKAIDWQREPTSAPPEKDLLLEHDGVDYVIFREKEGKVLEVRGGPKDALIVYATQSTHSSLLYQEAFLITFRTFISSLELVNKLIKRYLYMSLADDSQSESIARHTFSVIVRIIDETTQYELDFDLITSVTSFVYRLIHDGNFTYSRILRTRLLDRIKDSFDIQTVLGTNLCKPRKPHDLFDFKSAEIACQLTFIDSQLYHRIESAELLWWAQEQNEKKSKNLVNFTEQFNNLSFWVRTLIITQGTQKERERHMMKFVKIMKHLREMCNFNSYLAILSAIMSTPLARLEWSKNIKDALKEHTAVMDTAQSYKNYRALLQTAKPPCVPYIGIILQDLTFVHAGNPDTIPSDRCHGAKNMINFLKRWNQFAILDSIRKLKKWNYDIKKNDIVVQYFNGFKDCIDEERTWQLSHQIKPSNRKSKTQA | not soluble
3 | MSKELTAKKRAALNRLKTVRGHLDGIVRMLESDAYCVDVMKQISAVQSSLERANRVMLHNHLETCFSTAVLDGHGQAAIEELIDAVKFTPALTGPHARLGGAAVGESATEEPMPDASNM | soluble
4 | MSKFDTSALEAFVRHIPQNYKGPGGVVAVVKDGEVVLQHAWGFADLRTRTPMTLDTRMPICSVSKQFTCAVLLDAVGEPELLDDALEAYLDKFEDERPAVRDLCNNQSGLRDYWALSVLCGADPEGVFLPAQAQSLLRRLKTTHFEPGSHYSYCNGNFRILADLIEAHTGRTLVDILSERIFAPAGMKRAELISDTALFDECTGYEGDTVRGFLPATNRIQWMGDAGICASLNDMIAWEQFIDATRDDESGLYRRLSGPQTFKDGVAAPYGFGLNLHETGGKRLTGHGGALRGWRCQRWHCADERLSTIAMFNFEGGASEVAFKLMNIALGVSSSEVSRVEADSAWFGSWLDDETGLVLSLEDAGHGRMKARFGTSPEMMDVVSANEARSAVTTIRRDGETIELVRASENLRLSMKRVKGEAKHDIIGRYHSDELDADLLLVSEGGAIYGAFEGFLGKSDMYPLYSVGSDVWLLPVQRSMDAPSPGEWKLVFRRDDKGEITGLSVGCWLARGVEYRRVQP | soluble
5 | MSKIDFHTHYLPTSYVEALKRHVPGDPDGWPTPEWTPQLTLNFMRDNDISYSILSLSSPHVNFGDKAETIRLVEAANDDGKSLAQQYPDQLGYLASLPIPYELDAVKTVQQALDQDGALGVTVPTNSRGLYFGSPVLERVYQELDARQAIVALHPNEPAILPKNVDIDLPVPLLGFFMDTTMTFINMLKYHFFEKYPNIKVIIPHAGAFLGIVDDRIAQYAQKVYQVDVYDVMHHVYFDVAGAVLPRQLPTLMSLAQPEHLLYGSDIPYTPLDGSRQLGHALATTDLLTNEQKQAIFYDNAHRLLTELEHHHHHH | soluble
6 | MSKKKQDVSIVRSSAAEYLTFIAAMGDQSQSVEMRYEDENIWLTQKMMASLYDVTVPAINQHLKRIFDDGELLPEAVLKDYLITAADGKQYRTKHYNLQAIISVGFKINNVRAVQFRKWAGQIVKDYTIQGWTMDVERLKKGHLFTDEYFDRQLEYIREIRLSERKFYQKVTDLYATAFDYDKDALTTREFFALVQNKLHWAVHRHTAAELIVSRADAGRTNMGLTHWAAAPQGKIIKSDVSIAKNYLNVQEMEYLERIVSIYLDFAELQAMRKIPMSMQDWARRLDGFLEFNGNEILMGPGKVSQEQAKLHAESEFEQYRIVQDRLFQSDFDRLLLQLESKNKEEGQ | not soluble
7 | MSKKQSSTPHDALFKLFLRQPETARDFLAFHLPAPIHALCDMKTLKLESRSFIDDDLRESYSDVLWSVKTEQGPGYIYCLIEHQSTSNKLIAFRMMRYAIAAMQNHLDAGYKTLPMVVPLLFYHGIESPYPYSLCWLDCFADPKLARQLYASAFPLIDVTVMPDDEIMQHRRMALLELIQKHIRQRDLMGLVEQMACLLSSGYANDRQIKGLFNYILQTGDAVRFNDFIDGVAERSPKHKESLMTIAERLRQEGEQSKALHIAKIMLESGVPLADIMRFTGLSEEELAAASRLAP | not soluble
8 | MSKLMQNPVLHELKKQASFFIKEKIKTARLAVTDVTAEELLTEEVTGSDHSSIDSRSMAAITRVSFEVDQFQRIVKILRQRMVVFDRKEWRGMCNTLSMLNHLLLNGPLSVFSEFQHERAIIEDAIKMEWIDERGFDCGLKVRNIAEKVLRLLEDDMFLKDERERNRKQSIGRITGFGNSSFVIHSETNNGRDGSLMLSNHQTCENDCIADDHPFVENEHKTAQLLLSSST | soluble
9 | MSKLSFRARALDASKPLPVFRCEDLPDLHEYASINRAVPQMPTGMEKEEESVMLRFFSLYFYRLYPPSTRSLLCASLHKMAAMFLPDGNGDGAHTSPLVIPHSGWLVGLIRISL | not soluble
10 | MSKNIVVAPSILSADFSRLGEEIKAVDEAGADWIHVDVMDGRFVPNITIGPLIVDAIRPLTKKTLDVHLMIVEPEKYVEDFAKAGADIISVHVEHNASPHLHRTLCQIRELGKKAGAVLNPSTPLDFLEYVLPVCDLILIMSVNPGFGGQSFIPEVLPKIRALRQMCDERGLDPWIEVDGGLKPNNTWQVLEAGANAIVAGSAVFNAPNYAEAIAGVRNSKRPEPQLATV | soluble
11 | MSKSICKSSMRAAVVRRFGAPDVIEAVESDMPRLEKNQVLVRNYAAGVNPVDTYIRAGQYGKLPNLPYVPGKDGAGFVELVGESVKNVKVGDRVWYGSEADSTAEYVAVNRPFELPEGVSFEEGASLGVPYLTAYRALFHLAGAKTGDVILVHGASGGVGSALMQLAAWRNIEAVGTAGSADGIRFVKSLGARNVYNHSDKQYVSKMKNDYPGGFNHIFEMAAHTNLNTDLGLLAPRGRVAVIGNRAETTINARQLMVTEGAVYGVALGMSSEAELLDFGINIVSFLKETEFRPLINKLYRLEQLGLAHEEIMNNKGAKGNLVVQIEH | not soluble
12 | MSKSQYKMSKITYASGKMRPPSLIQKLNVYKPFLLIVDINSTNFALVGNGEILGHLFYRQNSPSYTQIKSRLVIYPKCCKLYSEDIAIPLHDWKIENLGAIKLLTKHNSLKTGTLHQIDKTMMLVYMAAFGEDSGVRSKISKPHGKTATWRNQHDLFMQ | not soluble
13 | MSLAASRRRNTYSQKVNMSNNVRADSLSLLLFTLRSGKLMAINLLKVSEIIPCPALTHLPESHPHVKGIATLRGSSLAVIDLSRAIGERPLADPDGGCLIVTDVSRSKQGLHVQAVSKIVHCLTTDIRPPPYGSSSKSFITGVTQVDGVLVQVLDIEKVIHGIAPAQIVVQSTELAKEDAEVLSKARILVVDDSQVALQQSIITLRNLGIECHTARSAREAIDVLLDLQGTARQINVVVSDIEMSEMDGYALTRTLRDTPDFSDLYILLHTSLDSAMNSEKSQIAGANAVLTKFSSPELTKCLIEAARTVVAQGEGHHHHHH | soluble
14 | MSLAATGNASKPSLNSFYADGLGQLRNGLFSCFQPVFGYFGTKTTVEIEKSEDELWEIPFDAISELEWLGSGSQGAVFRGQLENRTVAVKKVNQLKETEIKHLRHLRHQNIIEFLGVCSKSPCYCIVMEYCSKGQLCTVLKSRNTITRELFAQWVKEIADGMHYLHQNKVIHRDLKSPNILISAEDSIKICDFGTSHMQKKMDSTMMSFCGTVSWMAPEMIKKQPCNEKVDVYSFGVVLWEMLTRETPYANIAQMAIIFGVGTNILSLPMPEEAPKGLVLLIKQCLSQKGRNRPSFSHIRQHWEIFKPELFEMTEEEWQLAWDSYREFAKCIQYPSTVTRDHGGPKSAFAMEEEIQRKRHEQLNHIKDIRNMYEMKLKRTNKMYDKLQGCFTELKLKESELAEWEKDLTEREGHHHHHH | not soluble
15 | MSLADLEEALLIIDSDEDVSRHMKEHLTSRGFHVVHCASVKCFTDLKAQVTPDIIIGDLTSDDIKSLYSLLKDVHPRPPIVIHSKRADAENILGALRSGASDYIVKPVADVAVLDEAIQRQIDQVRVYRENQQYRYDLELANKELRAGLEELQADQRAGRHVQMKMLPEREVEYGGIQFDHCIKPSLYLSGDFFDYFRLSSDKIAFYFADVSGHGASSAFVTVLLKNLSNRLQRNLRRQSSDDILYPDRFLKRVNAELLDTDLGKHLTMFAGVIDLQTRVLSYSMGAHFPMPVMSVNGVSRYLDGKGPPVGLFDDPVYPLYEEPLAPGFSLVICSDGLLEVINAKSLAEKEQALLETVQEARHTIPELEKAFGLRWITELPDDIAIVSIMETTEGHHHHHH | soluble
16 | MSLADTIIKNAKIVDVYNARIIEGTLAIADSRFLGIDAAYTADNVINAHGQYVVPGLIDPHIHIESANVSPAVFGSLVTPHGTTTILADPHEIVNVAGMRGLEYMVASAKNTALDIKYTMPSCVPAANPTLETSGAVITADEIKQSYDQGLTYGLAEFMNYPGVVNADDGVLDELLVSLNARKMIDGHSPALHGQGLNAYAAAGVHNDHECTQVDEMLDRISRGMYVYLRYGTVSKNMPTLLKGVTPQNARFCCLCGDDLQSVTLRETGHLDESIRVAIQNGIDPLTAIQMATINTAQCTGLSDRGGIAPGLKADFLLVDDLEHFNVNQTFIDGQKIAANGAYLLPTDDSVAGFDDLLETVHLDNFSADQLKLNLTSDKAHVIGLQSISRTQNLVLPVAHDAEGDFHYKPSEDIVKVAVVERHHLTGNVGVGLLSGFGLQNGAIATSIGHDSHNLVVVGTNDADMVVAIDALKACQGGGVAVQNGQVIATLPFVIGGLMSTEPIDSLIAHQKAFNTICHEQLNVTAQFDPIMKLGAMPLDVIPNLRITDKGLVDVTKFEIIDINAEGHHHHHH | soluble
17 | MSLADTLMSDTPFWQRKTLDEMTDAEWESLCDGCGQCCLHKLMDEDTDEIYFTNVACRQLNIKTCQCRHYERRFEFEPDCIKLTRENLPDFEWLPMTCAYRLLAEGKPLPTWHPLLTGSKAAMHGERISVRHIAVKESEVRDWQDHILNKPSWAEEGHHHHHH | not soluble
